This note sets out measurements from patent publication US20030105283A1.

In test [1] the target is IgE antibodies in pooled sera from patients (collection of sera from 10 patients showing high values in RAST method). Kind of test: RAST cross inhibition, pooled patient sera; competitor: MF-1 immobilised on solid phase.
The target is the same in test [2]. Briefly: RAST cross inhibition, pooled patient sera; competitor: MF-4 immobilised on solid phase.
Test [3] has the same target. Kind of test: RAST cross inhibition, pooled patient sera; competitor: MF-2 immobilised on solid phase.

B1: purified antigenic protein MF-1 (protein)
chain: PGDPTATAKGNEIPDTLMGYIPWTPELDSGEVCGIPTTFKTRDEWKGKKVVIVSIPGAYTPICHQQHIPPLVKRVDELKAKGVDAVYVIASNDPFVMAAWGNFNNAKDKVVFATDIDLAFSKALGATIDLSAKHFGERTARYALIIDDNKIVDFASDEGDTGKLQNASIDTILTKV
As to B1, the figures for the IC50 in test [1], in test [2] and in test [3] were 0.038 µg/mL, 18 µg/mL and > 100 µg/mL, respectively. Besides, the relative concentration for 50% inhibition (in brackets; homologous antigen = 1) in test [1] was 1; in test [2], 290; in test [3] it was > 7700.

B2: purified antigenic protein MF-2 (protein)
chain: EIGSTIPNATFAYVPYSPELEDHKVCGMPTSFQSHERWKGKKVVIVAVPGAFTPTCTANHVPPYVEKIQELKSKGVDEVVVISANDPFVLSAWGITEHAKDNLTFAQDVNCEFSKHFNATLDLSSKGMGLRTARYALIANDLKVEYFGIDEGEPKQSSAATVLSKL
modifications: N-terminus blocked
On to B2, for which the values for the IC50 in test [1], in test [2] and in test [3] were 8.6 µg/mL, 30 µg/mL and 0.013 µg/mL, respectively. Further, the relative concentration for 50% inhibition (in brackets; homologous antigen = 1) in test [1] amounted to 230; in test [2], 480; in test [3], 1.
